Reference: publication PMC8031885, “Targeted mutagenesis on PDGFRα-Fc identifies amino acid modifications that allow efficient inhibition of HCMV infection while abolishing PDGF sequestration” (PLoS Pathogens, 2021)
Residue numbers refer to the chain shown, from its start. Numbers in names are those of the source.

B1: PDGFRα-Fc wild type (Fc fusion)
chain: QLSLPSILPNENEKVVQLNSSFSLRCFGESEVSWQYPMSEEESSDVEIRNEENNSGLFVTVLEVSSASAAHTGLYTCYYNHTQTEENELEGRHIYIYVPDPDVAFVPLGMTDYLVIVEDDDSAIIPCRTTDPETPVTLHNSEGVVPASYDSRQGFNGTFTVGPYICEATVKGKKFQTIPFNVYALKATSELDLEMEALKTVYKSGETIVVTCAVFNNEVVDLQWTYPGEVKGKGITMLEEIKVPSIKLVYTLTVPEATVKDSGDYECAARQATREVKEMKKVTISVHEKGFIEIKPTFSQLEAVNLHEVKHFVVEVRAYPPPRISWLKNNLTLIENLTEITTDVEKIQEIRYRSKLKLIRAKEEDSGHYTIVAQNEDAVKSYTFELLTQVPSSILDLVDDHHGSTGGQTVRCTAEGTPLPDIEWMICKDIKKCNNETSWTILANNVSNIITEIHSRDRSTVEGRVTFAKVEETIAVRCLAKNLLGAENRELKLVAPTLRSELTVA
B2: PDGFRα-Fc I139E + V242K (Fc fusion)
chain: B1 chain with I116E, V219K
B3: PDGFRα-Fc I139E + Y206S (Fc fusion)
chain: B1 chain with I116E, Y183S
B4: PDGFRα-Fc I139E (Fc fusion)
chain: B1 chain with I116E
B5: PDGFRα-Fc I139A + Y206A (Fc fusion)
chain: B1 chain with I116A, Y183A
B6: PDGF-BB (ligand, UniProt P01127 82-190, looked up)
chain: SLGSLTIAEPAMIAECKTRTEVFEISRRLIDRTNANFLVWPPCVEVQRCSGCCNNRNVQCRPTQVQLRPVQVRKIEIVRKKPIFKKATVTLEDHLACKCETVAAARPVT
modifications: NT-647 dye on amines (amine reactive labelling kit RED-NHS) in the MST experiments; unlabelled in the signalling assays
notes: PDGF-B chain of dimeric PDGF-BB, bought recombinant protein; also called dimeric PDGF-BB; source: bought: R&D # 220-BB
B7: PDGFRα-Fc Y206S + V242K (Fc fusion)
chain: B1 chain with Y183S, V219K
B8: PDGFRα-Fc Y206S (Fc fusion)
chain: B1 chain with Y183S

What was measured:
PDGF-BB = target: B6; experiment: cell-based or functional assay
[1] = target: T1, gH/gL/gO trimer of HCMV TB40-BAC4 (human cytomegalovirus, strain TB40/E …); experiment: cell-based or functional assay
[2] = target: T1, gH/gL/gO trimer of HCMV TB40-BAC4; experiment: cell-based or functional assay; remark: listed apart in the source
[3] = target: T1, gH/gL/gO trimer of HCMV TB40-BAC4; experiment: cell-based or functional assay; remark: listed apart in the source
PDGFRα-Fc V242K = target: T2, PDGFRα-Fc V242K (UniProt P16234-1 24-528, V242K); experiment: MST; Monolith NT.115 Pico; read-out: dose-dependent changes of MST traces (F1 over F0; MST-on time 4-5 s in Fig 7, 1.5-2.5 s in Fig 10A); 0.1 nmol/l NT-647-labelled PDGF-BB constant, PDGFRα-Fc titrated; 60% excitation power; 0.025% Tween-20, 50 mM NaCl; 25°C; details: both partners purified
T2 construct: PDGFRα (CD140a), extracellular domain, aa 24 to 528, NCBI XP_005265800; Point mutant of m1; also called V242K single mutant; source: HEK 293 F suspension cells, transiently transfected (PEI), purified from the medium with Protein A beads

PDGFRα-Fc I139E + Y206S = target: B3; experiment: as above; details: both partners purified
PDGFRα-Fc I139A + Y206A = target: B5; experiment: MST; Monolith NT.115 Pico; read-out: dose-dependent photo-bleaching (fluorescence quenching) rate in a prolonged initial fluorescence segment (5 s) before the thermophoresis segment; 0.1 nmol/l NT-647-labelled PDGF-BB constant, PDGFRα-Fc variants in 16 concentrations over 5 log steps; 60% excitation power; one site binding model; IgG elution buffer neutralised with 0.1 M Tris pH 8.0, 0.025% Tween-20, 50 mM NaCl; 25°C; details: both partners purified
PDGFRα-Fc wild type = target: B1; experiment: as above; details: both partners purified
PDGFRα-Fc I139E = target: B4; experiment: as above; details: both partners purified
PDGFRα-Fc Y206S = target: B8; experiment: as above; details: both partners purified

B1
EC50 for inhibition of PDGF signaling (6 ng/ml PDGF-BB, phospho-Akt ELISA, fibroblasts) (PDGF-BB): 0.013 µg/mL
EC50 of inhibition of HCMV TB40-BAC4-IE-GLuc infection of fibroblasts (Gaussia luciferase read-out) [1]: < 0.02 µg/mL
EC50 of inhibition of HCMV TB40-BAC4 infection of fibroblasts and of endothelial cells (immediate-early antigen staining) [1]: ~0.01 µg/mL
HCMV inhibition EC50 (TB40-BAC4-IE-GLuc, fibroblasts, immediate-early antigen staining) [2]: 0.0056 µg/mL
HCMV inhibition EC50 (Table 2; differs from Table 1) [3]: 0.0046 µg/mL

B2
HCMV inhibition EC50 (fibroblasts, immediate-early antigen staining) [1]: 0.027 µg/mL

B3
HCMV inhibition EC50 (TB40-BAC4-IE-GLuc, fibroblasts, immediate-early antigen staining) [2]: 0.0252 µg/mL

B4
EC50 for inhibition of PDGF signaling (6 ng/ml PDGF-BB, phospho-Akt ELISA, fibroblasts); the paper says incomplete inhibition precludes a precise value (PDGF-BB): ~2 µg/mL
HCMV inhibition EC50 (TB40-BAC4-IE-GLuc, fibroblasts, immediate-early antigen staining) [2]: 0.0328 µg/mL

B5
HCMV inhibition EC50 (TB40-BAC4-IE-GLuc, fibroblasts, immediate-early antigen staining) [2]: 0.0198 µg/mL

B6
Kd (PDGFRα-Fc V242K): 92 nM
Kd (PDGFRα-Fc I139E + Y206S): 200 nM
Kd (PDGFRα-Fc I139A + Y206A): 4.6 nM
Kd (PDGFRα-Fc wild type): 0.14 nM
Kd (PDGFRα-Fc I139E): 4.02 nM
Kd (PDGFRα-Fc Y206S): 7.32 nM

B7
HCMV inhibition EC50 (fibroblasts, immediate-early antigen staining) [1]: 0.047 µg/mL

B8
HCMV inhibition EC50 (TB40-BAC4-IE-GLuc, fibroblasts, immediate-early antigen staining) [2]: 0.0311 µg/mL
